Measurements: US20080187548A1 (LUDWIG INSTITUTE FOR CANCER RESEARCH, published 2008)

What was measured:
Assay in all cases: cell-based or functional assay
HLA-DRB1*0401 = HLA-DRB1*0401 (human)
HLA-DRB1*0301 = HLA-DRB1*0301 (human)
HLA-DRB1*0101 = HLA-DRB1*0101 (human)
HLA-DRB1*0701 = HLA-DRB1*0701 (human)

- Responding patients (%) (HLA-DRB1*0401): 28.6%
- Responding patients (n = 38) (HLA-DRB1*0401): 2 patients
- Responding patients (%) (HLA-DRB1*0301): 10%
- Responding patients (n = 38) (HLA-DRB1*0301): 1 patients
- Responding patients (%) (HLA-DRB1*0101): 28.6%
- Responding patients (n = 38) (HLA-DRB1*0101): 2 patients
- Responding patients (%) (HLA-DRB1*0701): 14.3%
- Responding patients (n = 38) (HLA-DRB1*0701): 1 patients
Binder: TIRLTAADHRQLQLS [NY-ESO-1 peptide, amino acids 134-148 (TIRLTAADHRQLQLS; SEQ ID NO: 2)]
